Experimental data published in IntAct's records for PubMed 17889654.

B1: Transcriptional coactivator yorkie (Drosophila melanogaster (Fruit fly)), Q45VV3 (parent)
chain: MLTTMSASSNTNSLIEKEIDDEDMLSPIKSNNLVVRVNQDTDDNLQALFDSVLNPGDAKRPLQLPLRMRKLPNSFFTPPAPSHSRANSADSTYDAGSQSSINIGNKASIVQQPDGQSPIAAIPQLQIQPSPQHSRLAIHHSRARSSPASLQQNYNVRARSDAAAANNPNANPSSQQQPAGPTFPENSAQEFPSGAPASSAIDLDAMNTCMSQDIPMSMQTVHKKQRSYDVISPIQLNRQLGALPPGWEQAKTNDGQIYYLNHTTKSTQWEDPRIQYRQQQQILMAERIKQNDVLQTTKQTTTSTIANNLGPLPDGWEQAVTESGDLYFINHIDRTTSWNDPRMQSGLSVLDCPDNLVSSLQIEDNLCSNLFNDAQAIVNPPSSHKPDDLEWYKIN
partner: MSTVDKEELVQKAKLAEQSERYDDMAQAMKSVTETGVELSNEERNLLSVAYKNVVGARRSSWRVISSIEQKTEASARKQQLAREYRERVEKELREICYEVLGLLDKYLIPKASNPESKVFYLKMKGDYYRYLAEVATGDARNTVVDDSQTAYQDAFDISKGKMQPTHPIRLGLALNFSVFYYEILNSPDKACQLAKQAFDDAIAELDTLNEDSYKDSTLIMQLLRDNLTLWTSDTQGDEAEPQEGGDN

Variants of: B1
Conditions: with 1433z_drome 14-3-3zeta

Row | effect of a mutation on the interaction | Variant
1 | decreasing interaction | S145A
